Laboratory results reported in the nanobody polyreactivity screen of Harvey et al. (2022).

Assay: yeast display, Sf9 membrane polyspecificity reagent, FACS + sequencing; frameworks hold sequencing errors
In short: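 In a synthetic yeast display library (Saccharomyces cerevisiae BJ5465), nanobody expression was induced with galactose for 36–48 hours. FACS gates were set low and high (top ~1%) using anti-HA fluorescence for expression and streptavidin fluorescence for binding of the Sf9 membrane reagent. Each polyreactivity label is drawn from the gate of origin.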

## QVHLVESGGGLVQAGGSLRLSWAASGSILRQYAMGWYRQAPGKERELVATITGDGSTNYADSVKGRFTISRDNAKNTVYLQMNSLKPQDTAVYYCITDLTYPNPNVEVMVYGFKLDYWGQGTQVTVSS
  polyreactivity (PSR sort gate): low polyreactivity

## QVQLVESGGGLVQAGGSLRLSCAASVLTFVDYAMGWYRQAPGKERELVAAITSSGGSITYYADSVKGRFTISRDNAKNTVYLQMNSLKPEDTAVYYCNADYGIYTDSFRGQDYESWGQGTQVTVSS
  polyreactivity (PSR sort gate): low polyreactivity

## QVQLVDSGGGLVQAGGSLRLSCAASGSILNNYAMGWYRQARGKERELVAAISSSGGTNYADSVKGRFTISRDNAKNTVYLQMNSLKPEDTAVYYCYADVLDGGYDYWGQGTQVTESS
  polyreactivity (PSR sort gate): low polyreactivity

## QVQLVESGGGLVQAGGSLRLSCAASGRIFNYYAMGWYRQAPGKERELVATISRNGGRTYYADSVKGRFTISRDNAKNTVYLQMNSLKPEVTAVYYCATDGLYRYDYWGQGTQVTVSS
  polyreactivity (PSR sort gate): high polyreactivity

## QVQLVDSGGGLLQAGGSLRLSCAASGRTCRGYAMGWYRQAPGKEWELVAAITSGGSTNYADSVKGRFTISRDNATNTVSIQMNRLKPEETAVYYCAAGRSTGQYRYYFWGLGTQVTVSS
  polyreactivity (PSR sort gate): high polyreactivity

## QVQLVESGGGLVQAGGSLRLSCAASGRILGPNAMGWYRQAPGKERELVAAINSGGSTNYADSVKGRFTISRDNAKNTVYLQMNSLKPEDTAVSYCAPDKARVAGYGVEYDYWGQGTQVTVSS
  polyreactivity (PSR sort gate): low polyreactivity

## QVQLVESGGGLVQAGGSLRLSCAASGFTFIKNAMGWYRPAPGKERELVAAINSGGRTYYADSVKGRFTISRDNAKNTVYFQMNSLIPEDTAVYYCAARYTRDYYWGQGTQVTVSS
  polyreactivity (PSR sort gate): high polyreactivity

## QVQLVESGGGLVQAGGSLRLSCAASVIICPDNAMGWDRPAPGKERELVAAITQSRGSTFYADSVKGRFTISRDNAKNTVYLQMKSLKPEDTAVYYCNAYRKFRYWGQGTQVTVSS
  polyreactivity (PSR sort gate): high polyreactivity

## QVQLEESGVGLVQAGGSLRFSCAASGRIFYSYAMGCDRQAPGKERELVATISSAGSTYYADSVKGRFTISRDNAKNTVYLQMNSLKPEDTAVYYCAARRPRRYGYWGLGTQVTVSS
  polyreactivity (PSR sort gate): high polyreactivity

## QVQLVESGGGLDQARGSLRLSCAASGRIFELYAMGWYRQAPGKERELVAAITSSGGTTYYADSVKGRFTISRDNAKNTVYLQMNSLKPEDTAVYYCNTVYATRYDYWGQGTQVTVSS
  polyreactivity (PSR sort gate): high polyreactivity

## QVQLVESGGGLVQAGGSLRLSCAASGFTFYRYAMGWYRQAPGKERELVATISASGGSTYYADSVKGRFTISRDNAKNTVYLQMNSLKPEDTAVYYCAVRYKSWFGFNYWGQGTQVSVSS
  polyreactivity (PSR sort gate): high polyreactivity

## QVQLVESVGGLDQAGGSLRLSCAASGFTFDINTMGWYRQEPGKERELVAAITYSGGSTYYADSVKGRFTISRDNAKNTVYLQMNSLKPEDTAVYYCATTWYFVASWYVAIYDYWGQGTQVTVSS
  polyreactivity (PSR sort gate): low polyreactivity

## QVQLVESGGGLVQAGGSLRLSCAASGFTLWLNAMGWYRQAPGKERELLAAITTSDDGTYYADSVKGRFTISRDNAKNTVYLQMNSLKPEETAVYYCAADYYSVQYDYWGQGTQVTVSS
  polyreactivity (PSR sort gate): low polyreactivity

## QVQLVESGGGLVQAGGSLRLSCAASGLIFGVYAMGWYRQAPGKERELVAGISWRGSSTYYADSVKGRFTISRDNAKNTVYLQMNSLKPEDTAVYYCAAVRRPSRHAYGGTAVYYWGQGTQVTVSS
  polyreactivity (PSR sort gate): high polyreactivity

## QVQLVESGGGLVQAGGSLRLSCAASGSTWYYAMGWYRQAPGKERELVATISSGSRTYYADSVKGRFTISRDNAKNTVYLQMNSLKPEDTAVYYCAARESYAELNYWGQGTQVTVSS
  polyreactivity (PSR sort gate): high polyreactivity

## QVQLVESGGGLVQAGGSLRLSCAASGITFGSYAMGWYRQAPGKERELVAAITSGGGTNYADSVKGRFTISRDNAKNTVYLQMNSLKPEDTAVYYCAARYYYLGTRYGYWGQGTQVTVSS
  polyreactivity (PSR sort gate): low polyreactivity

## QVQLVESGGGLVQAGGSLRLSCAASGRTIYYYAMGWYRQAPGKERELVAAITSGGSTYYADSVKGRFTISRDNEKNTVYLQMNSLKPEDTAVYYCAARPLEGWHYGSWGQGTQVTVSS
  polyreactivity (PSR sort gate): low polyreactivity

## QVQLVESGGGLVQAGGSLRLSCAASGSIFSQNAIGWYRQAPGKEMELVAAISSSGTRTYYADSVKGRFTISRDHAKNTVYLQMNSLKPEDTAVYYCNKVLFRPRFFVRSDYWGQGTQVSVSS
  polyreactivity (PSR sort gate): high polyreactivity

## QVQLVESGGGLVQAGGSLRLSCAASGRTIRWYTMGGYRQAPGKEMELVAGISSSGGSTYYADSVKGRFTISRDNAMNTVYLQMNSLKPEDTAVYYCNAQALRLFWRYDYWGQGTQVTVSS
  polyreactivity (PSR sort gate): low polyreactivity

## QVQLVQSGGGLVQAGGSLRLSCAASGRTIWANAMGWYRQAPGKESELVAAITTSGGSTNYADSVKGRFTISRDNAKNTVYLQMNSLKPEDTAVYYCNADPTYHVVNGVGYWGQGTQVTVSS
  polyreactivity (PSR sort gate): low polyreactivity

## QVQLVESAGGLVQAGGSLRLSCAASGSIFYGNAMGWYRQAPGKERELVASITYSGGTTNYADSVKGRFTISRDTAKNTVYLQMNSLKPEDTAVYYCAADAIPDSVWYWEYDYWGQGTQVTVSS
  polyreactivity (PSR sort gate): low polyreactivity

## QVQLVESGGGLVQAGGSLRLSCASSGIIFYTYAMGWYRQAPGKERELDAAITQTSAPTYYADSVKGRFTISRDNAKNTVYLQMNSLNPEDTAVYYCAAVPSYRVQGGRMYYWGQGTQVTVSS
  polyreactivity (PSR sort gate): high polyreactivity

## QVQLVESGGGLVQAGGSLRLSCAASGNIFAWYAMGGYRQAPGKERELVADISSRGGSTSYADSVKGRFTISRDNAKKTVYLQMNSLKPEDTAVYYCAASYYYPFEYYYWGQGTQVTVSS
  polyreactivity (PSR sort gate): low polyreactivity

## QVQLVESVGGLVQAGGSLRLSCAASGRIFGVYAMGWYRQAPGKERELVAAISEGGGSTNYADSVKGRFTISRDNAKNTVYLQMNSLKPEDTAVYYCAATYRTGVRRYYSWGQGTQVTVSS
  polyreactivity (PSR sort gate): low polyreactivity

## QVQLVESGGGLVQAGGSLRLSCAASGRIFYRNAMGWYRQAPGKERELVAAISRRGGSTSYADSVKGRFTISRDNANNTVYLQMNSLKPEDTAVYYCAASRFRTGQEDDYWGQGTQVTVSS
  polyreactivity (PSR sort gate): high polyreactivity

## QDQHVESGGGLVQAGGSLRLICSASGSTNGLGWYRQAPGKERELVAVITWDTGGTYYADSVKGRFTISRDNAKNTVYLQMNSLKPEDTAVYYCAKDVGHGAGNLMGYWGQGTQVTVSS
  polyreactivity (PSR sort gate): low polyreactivity

## QVQLVESGGGLVQAGGSLRLSCAASGLIFAIYAMGWYRQAPGNERELVAAIRWSGASTYADSVKGRFTISRDNAKNTVYLQMNSLKPEDTAVYYCAADDLLDYDYWGQGTQVTVSS
  polyreactivity (PSR sort gate): low polyreactivity

## QVQLVESGGGLVQAGGSLRLSCAASGFIIRGNVMGWSRQAPGKERELVAAISGRGGSTYYADSVKGRFTISRDNAKNTVYLQRNILKPEDTGVYYCNAAGLYNSRLDYWGQGTQVTVSS
  polyreactivity (PSR sort gate): high polyreactivity

## QVQLVESGAGLVQAGGSLRLSCAASGRIFTKYAMGLYRQAPGKERELVAAISGSGGNTYYADSLKGRFTISRDNAKNTVYLQMNSLKPEDTAVYYCNRAKNAYLMDFWGQVTQVTVSS
  polyreactivity (PSR sort gate): high polyreactivity

## QVQLVESGGGLVQAGGSLRLSCAASGRTFFSNAMGWYRQAPGKERELVAAISNGDNTYYADSVKGRFTISRDNAKNTVYLQMNSLKPEDTAVYYCAKDYRWVWRKYGYWGQGTQVTVSS
  polyreactivity (PSR sort gate): low polyreactivity

## QVQLVESGGGLVQAGGSLRLSCAASGRTFSKNAMGWYRQAPGKERELVADISRRGGRTYYADSVNGRFTISRDNAKNTVYLQMNSLKPEDTAVYYCAARTYRQPYYILDYYWGQGTQVTVSS
  polyreactivity (PSR sort gate): high polyreactivity

## QVQLVESGGGLVQAGGSLRLSCAASGSIFYPYAMGWYRQAPGKERELVASITINDGSTYYADSVKGRFTISRDNAKNTVYLQMNSLKTEDTSVYYCNVEPVPGFGSEYEYWGQGTQVTVSS
  polyreactivity (PSR sort gate): low polyreactivity

## QVQLVESGGGLVQAGGSLRLSSAASGFILRTNAMGWYRQAPGKERELVAAISVSGGRTYYADSVKGRFTISRDNAKNTVYLQMNSLKPEDTAVDYCAARDSTKLLSGYTHYYWGQGTQVTVSS
  polyreactivity (PSR sort gate): high polyreactivity

## QVQLVESGGGLVQAGGSLRLSCAASGSNYSGYAMGWARQAPGKERELVAAITKSGGRTYYADSVKGRFTISRDNAKNTVYLQMNSLKPEDTAVYYCAKAYPGTYREYDYWGQGTQVTVSS
  polyreactivity (PSR sort gate): high polyreactivity

## QVQLVESGGGLVQAGGSLRLSCAASGSIFPTNAMGWYRQAPGKERELVAAISSRDGSTYYADSVKGRFTISRDNAKNTVYLQMNSLKPEDTAVYYCNTDHDPIYFYITRHDSWGQGTQVTVSS
  polyreactivity (PSR sort gate): low polyreactivity

## QVQLVESGGGLVQAGGSLRLSCAASGSTFYVYDMGWYRQAPGKEREFVAVISWNGGSTYYADSVKGRFTISRDNAKNTVYLQMNSLKPEDTAVYYCATRRSSGRVTYDYWGQGTQVTVSS
  polyreactivity (PSR sort gate): low polyreactivity

## QVQLVESGGGLVQAGGSLRLSCAASGRIFAYYAMGWYRQAPGKERELVAGINSGGGSTYYADSVKGRFTISRDNAKNTVYLQMNSLKPEDNAVSYCATYYYRRSNRSSTSYDYWGQGTQVTVSS
  polyreactivity (PSR sort gate): high polyreactivity

## QVQLVESGGGLVQAGGSLRLSCAASGRTFRNNAMGWYRQAPGKEREFVAVISNTGGSTYYADSVKGRFTISRDNAKNTVYLQMYSLKPEDTAVYYCAVRPRYSQYYYWGQGTQVTVSS
  polyreactivity (PSR sort gate): high polyreactivity

## QVQLVESGGGLVQAGGSLRLSCAASGFTFNNYAMGWYRQAPGKERELVAAISSGAGTYYADSVKGRFTISRDNAKNTVYLQMNSLKPEDTAVYYCNASLKYQGLTRITYRDDYWGQGTQVTVSS
  polyreactivity (PSR sort gate): low polyreactivity

## QVQLVETGGGLVQAGGSLRLSCAASGFNFGPYDIGWYIQAPGKERELVAAITDSSGSTHYADSVKGRFTISRDNAKNTVYLQMNSLKPEDTAVYYWAADDSSRTTYDYWGQGTQVTVSS
  polyreactivity (PSR sort gate): low polyreactivity

## QVQLVESGGGLVQAGGSLRLSCAASGSIFSVNTMGGYRQAPGKERELVADISSGDSTYYADSVKGRFTISRDNAKNTVYLQMNSLKPEDTAVYFCNADVYSWVSGKEGDYWGQGTQVTVSS
  polyreactivity (PSR sort gate): low polyreactivity

## QVQLVESGGGLVQAGGSLRLICAASGVIFTGYTMGWYREAPGKESELVAAISYRGGSTYYADSVKGRFTISRDNAKITVYFQMNRLKPEDTAVYYCNAVWSNFRLGYDHWGQGTQVTVSS
  polyreactivity (PSR sort gate): high polyreactivity

## QVQLVESGGGLVQAGGSLRLSCAASGSTIVQNAMGWYRQAPAKERELVAAISRTGGSTYYADSVKGRFTISRDNAKNTVYLQMNSLKPEDTAVYYCAKRPPHYSWPKLIEFGSWGQGNQVTVSS
  polyreactivity (PSR sort gate): high polyreactivity
